The values below come from patent US20220017622A1 (Pfizer, published 2022).

To fix the notation:
B1: B7-H4 antibody 0057 (antibody, human IgG1, kappa, V domains shown)
VH: EVQLLESGGGLVQPGGSLRLSCAASGFTFSSYAMSWVRQAPGKGLEWVSAISGRGGSTYYTDSVKGRFTISRDNSRNTLYLQMNILRAEDTAVYYCARDLQWFGESTLFDYWGQGTLVTVSS
VL: DIQLTQSPSTLSASVGDRVTITCRASQSISAWLAWFQQKPGKAPKLLIYKASSLESGVPSRFSGSGSGTEFTLTISSLQPDDFATYYCQQYNSYSRSFGQGTKLEIKR
notes: also called 34A3
B2: B7-H4 antibody 0049 (antibody, human IgG1, kappa, V domains shown)
VH: EVQLLESGGGLVQPGGSLRLSCAASGFTFSSYAMSWVRQAPGKGLEWVSAISGSGGSTYYADSVKGRFTISRDNSKNTLFLHMNSLRAEDTAVYYCARDIQWFGESVFDYWGQGTLVTVSS
VL: B1 VL with L4M, A31S, F36Y, S65N, F83L, Q90Y, S97T, L104V
notes: also called 13F4
B3: B7-H4 antibody 0056 (antibody, human IgG1, kappa, V domains shown)
VH: EVQLLESGGGLVQPGGSLRLSCAASGFTFSTYAMNWVRQAPGKGLAWVSAISGSGGSTYYADSVKGRFTISRDDSKNTLYLQMNSLRAEDTAVYYCAKVDVVARYYGMDVWGQGTTVTVSS
VL: B1 VL with L4M, A31G, F36Y, K50E, N92K, R96W, S97T, L104V
notes: also called 33G4
B4: B7-H4 antibody 0051 (antibody, human IgG1, kappa, V domains shown)
VH: EVQLLESGGGLVQPGGSLRLSCAASGFTFSSYAMSWVRQAPGKGLEWVSSISGNGGSTYYADSVKGRFTISRDNSKNTLSLQMNSLRAEDTAVYYCAKVGWRTGDYWGQGTLVTVSS
VL: B1 VL with A31S, F36Y, P40A, S53D, T69I, R96W, S97T, L104V
notes: also called 27C12
B5: B7-H4 antibody 0055 (antibody, human IgG1, kappa, V domains shown)
VH: QVQLQESGPGLVKPSETLSLTCTVSGGSISSSSYYWGWIRQPPGKGLEWIGTIYFSGNTYYNPSLKSRVTISVDTSKSQLSLKLNSVTAADTAVYYCARLRVTMVRGVIIGVFDYWGQGTLVTVSS
VL: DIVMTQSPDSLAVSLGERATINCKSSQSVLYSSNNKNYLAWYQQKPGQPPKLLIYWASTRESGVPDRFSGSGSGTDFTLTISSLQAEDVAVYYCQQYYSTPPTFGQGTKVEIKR
notes: also called 32F3
B6: B7-H4 antibody 0060 (antibody, human IgG1, kappa, V domains shown)
VH: B5 VH with G26T, N58S, S78N, L80F, N85T, Y115F
VL: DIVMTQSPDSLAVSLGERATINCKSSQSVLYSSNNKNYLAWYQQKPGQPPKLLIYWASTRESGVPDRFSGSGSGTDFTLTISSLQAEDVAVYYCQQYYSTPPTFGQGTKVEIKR
notes: also called 42E2
B7: B7-H4 antibody 0052 (antibody, human IgG1, kappa, V domains shown)
VH: QVQLQQWGAGLLKPSETLSLTCAVYGGSFSGYYWNWIRQPPGKGLEWIGEINHSGSTKYNPSLKSRVTISGDTSKNQFSLKLNSVTAADTAVYYCVRGLYNWNVDSWGQGTLVTVSS
VL: DIQMTQSPSSLSASVGDRVTITCRASQGIRNDLGWYQQKPGKAPKRLIYVASSLQSGVPSRFSGSGSGTEFTLTISSLQPEDFATYYCLQHNSYPYTFGQGTKLEIKR
notes: also called 28D10
B8: B7-H4 antibody 0053 (antibody, human IgG1, kappa, V domains shown)
VH: QVQLQQWGAGLLKPSETLSLTCAVYGGPFSGYFWSWIRQPPGKGLEWIGEINHSGNTNYNPSLKSRVTISVDTSKNQFSLKLSSVTAADTAVYYCARAGGDYGFYYYYGMDVWGQGTTVTVSS
VL: DIQLTQSPSTLSASVGDRVTITCRASQSISSWLAWYQQKPGKAPELLVYKASRLESGVPSRFSGSGSGTEFTLTISSLQPDDFATYYCQQYNSYFGGGTKVEIKR
notes: also called 29G6
B9: B7-H4 antibody 0061 (antibody, human IgG1, kappa, V domains shown)
VH: B8 VH with P28S, I51F, N56G, Y59S, I69M, Y94F, M110L
VL: B8 VL
notes: also called 46E10
B10: B7-H4 antibody 0048 (antibody, human IgG1, kappa, V domains shown)
VH: EVQLLESGGGLVQPGGSLRLSCAASGFTFSSYAMKWVRQAPGKGLEWVSTTSGSGGTTYYADSVKGRFTISRDNSKNTLYLQMNSLRAEDTAVYYCAKAGWAAAFDYWGQGTLVTVSS
VL: DIQLTQFPSTLSASVGDRITITCRASQSISDWLAWYQQKPGKAPKLLIYKASSLESGVPSRFSGSGSGTEFTLTISSLQPDDFATYYCQQCNSYWTFGQGTKVEIKR
notes: also called 11F12
B11: B7-H4xCD3 bispecific antibody 0980 (bispecific antibody, IgG2)
heavy 1: EVQLVESGGGLVQPGGSLRLSCAASGGSFSGYYWNWIRQPPGKGLEWIGEIDHQGSTKYNPSLKSRVTISVDTAKNSLYLQMNSLRAEDTAVYYCARGLYNWNVDHWGQGTLVTVSSASTKGPSVFPLAPCSRSTSESTAALGCLVKDYFPEPVTVSWNSGALTSGVHTFPAVLQSSGLYSLSSVVTVPSSNFGTQTYTCNVDHKPSNTKVDKTVERKCEVECPECPAPPVAGPSVFLFPPKPKDTLMISRTPEVTCVVVAVSHEDPEVQFNWYVDGVEVHNAKTKPREEQFNSTFRVVSVLTVVHQDWLNGKEYKCKVSNKGLPSSIEKTISKTKGQPREPQVYTLPPSREEMTKNQVSLTCEVKGFYPSDIAVEWESNGQPENNYKTTPPMLDSDGSFFLYSKLTVDKSRWQQGNVFSCSVMHEALHNHYTQKSLSLSPG
light 1: DIQMTQSPSSLSASVGDRVTITCRASQGIRNDLGWYQQKPGKAPKRLIYAASSLQSGVPSRFSGSGSGTDFTLTISSLQPEDFATYYCLQHSSYPRTFGGGTKVEIKRTVAAPSVFIFPPSDEQLKSGTASVVCLLNNFYPREAKVQWKVDNALQSGNSQESVTEQDSKDSTYSLSSTLTLSKADYEKHKVYACEVTHQGLSSPVTKSFNRGEC
heavy 2: EVQLVESGGGLVQPGGSLRLSCAASGFTFSDYYMTWVRQAPGKGLEWVAFIRNQARGYTSDHNPSVKGRFTISRDNAKNSLYLQMNSLRAEDTAVYYCARDRPSYYVLDYWGQGTTVTVSSASTKGPSVFPLAPCSRSTSESTAALGCLVKDYFPEPVTVSWNSGALTSGVHTFPAVLQSSGLYSLSSVVTVPSSNFGTQTYTCNVDHKPSNTKVDKTVERKCRVRCPRCPAPPVAGPSVFLFPPKPKDTLMISRTPEVTCVVVAVSHEDPEVQFNWYVDGVEVHNAKTKPREEQFNSTFRVVSVLTVVHQDWLNGKEYKCKVSNKGLPSSIEKTISKTKGQPREPQVYTLPPSREEMTKNQVSLTCLVKGFYPSDIAVEWESNGQPENNYKTTPPMLDSDGSFFLYSRLTVDKSRWQQGNVFSCSVMHEALHNHYTQKSLSLSPGK
light 2: DIQMTQSPSSLSASVGDRVTITCTSSQSLFNVRSQKNYLAWYQQKPGKAPKLLIYWASTRESGVPSRFSGSGSGTDFTLTISSLQPEDFATYYCKQSYDLFTFGGGTKVEIKRTVAAPSVFIFPPSDEQLKSGTASVVCLLNNFYPREAKVQWKVDNALQSGNSQESVTEQDSKDSTYSLSSTLTLSKADYEKHKVYACEVTHQGLSSPVTKSFNRGEC
B12: B7-H4xCD3 bispecific antibody 0982 (bispecific antibody, IgG2)
heavy 1: B11 heavy 1 with A24V, G98E
light 1: B11 light 1
heavy 2: B11 heavy 2
light 2: B11 light 2

Numbering of substitutions follows the chain as printed.

In the first experiment the target is T1, human B7-H4 extracellular domain (human, UniProt Q7Z7D3 29-258).
T1 construct: For SPR it says only human B7-H4 ECD; also called Hu B7-H4 ECD; huB7-H4 ECD
T1 sequence: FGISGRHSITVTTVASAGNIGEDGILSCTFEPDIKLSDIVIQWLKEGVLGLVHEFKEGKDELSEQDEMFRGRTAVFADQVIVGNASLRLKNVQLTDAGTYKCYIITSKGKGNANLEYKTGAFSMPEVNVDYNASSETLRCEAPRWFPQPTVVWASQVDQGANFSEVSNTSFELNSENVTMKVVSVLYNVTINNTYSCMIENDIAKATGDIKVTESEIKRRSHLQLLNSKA
Briefly: SPR Biacore 8K 25 C; mAb captured on anti-human Fc, huB7-H4 ECD analyte, 1:1 fit.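 Note: antibodies tested as IgG1, running buffer HBS-EP+ at pH 7.4, rate constants and affinity from a 1:1 Langmuir model fit.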 In general terms: In SPR one partner is held on a chip, and binding of the other changes the refractive index at the surface.
For the molecule B1, the Kd amounted to 7.92 nM, the koff is 0.000508 s⁻¹ and the association rate constant (kon) worked out at 64100 M⁻¹ s⁻¹.

With B2, binding was characterised by a dissociation constant (Kd) of 1.85 nM, the koff stood at 0.000414 s⁻¹ and the kon was 225000 M⁻¹ s⁻¹.

In the case of B3, the affinity, expressed as Kd, was 0.62 nM; the koff was found to be 0.000353 s⁻¹; the kon is 574000 M⁻¹ s⁻¹.

In turn, B4 registered an equilibrium dissociation constant (Kd) of 0.57 nM, a koff of 0.000464 s⁻¹ and an on-rate constant (kon) of 814000 M⁻¹ s⁻¹.

Turning to B5, the equilibrium dissociation constant (Kd) is 1.9 nM, the off-rate (koff) was found to be 0.000725 s⁻¹ and the kon worked out at 382000 M⁻¹ s⁻¹.

As to B6, binding was put at a Kd of 1.35 nM, the off-rate constant (koff) stood at 0.00075 s⁻¹ and the association rate constant (kon) was 558000 M⁻¹ s⁻¹.

Consider B7, for which the dissociation constant (Kd) was 7.83 nM, the dissociation rate constant (koff) worked out at 0.0011 s⁻¹ and the kon was 140000 M⁻¹ s⁻¹.

Take B8: binding was put at a Kd of 0.74 nM, the koff was 0.000321 s⁻¹ and the kon turned out to be 434000 M⁻¹ s⁻¹.

Consider B9, for which binding was characterised by a dissociation constant (Kd) of 0.84 nM, the koff came out at 0.000572 s⁻¹ and the kon was determined as 678000 M⁻¹ s⁻¹.

In turn, B10 displayed a Kd of 0.83 nM, a dissociation rate constant (koff) of 0.000619 s⁻¹ and a kon of 745000 M⁻¹ s⁻¹.

The next experiment deals with T2, human B7-H4 on cells (human, UniProt Q7Z7D3 25-282).
T2 sequence (looked up): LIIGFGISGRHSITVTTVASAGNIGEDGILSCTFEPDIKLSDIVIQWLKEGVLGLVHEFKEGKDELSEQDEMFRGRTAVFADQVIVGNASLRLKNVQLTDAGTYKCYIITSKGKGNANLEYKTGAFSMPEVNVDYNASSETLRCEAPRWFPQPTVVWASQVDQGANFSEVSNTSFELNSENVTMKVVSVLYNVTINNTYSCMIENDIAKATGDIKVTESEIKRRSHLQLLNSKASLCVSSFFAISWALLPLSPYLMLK
Nature of the experiment: cell-based or functional assay.
As to B11, the “T cell mediated tumor cell killing EC50, HCC1954-Luc” value is 390 nM.

In the case of B12, the “T cell mediated tumor cell killing EC50, HCC1954-Luc” value turned out to be 2650 nM.

Broadly, the Kd is the equilibrium constant for the complex coming apart. A lower Kd goes with higher affinity. For orientation: koff means a measure of how fast the partners let go of each other. For orientation: kon means a measure of how fast the partners come together. A lower kon goes with slower complex formation.
